Biological target: human SK2 isoform hSK2A+ (small-conductance calcium-activated potassium channel protein), stably exp (human), Q9H2S1
Assay: cell-based or functional assay

Chain of human SK2 isoform hSK2A+ (small-conductance calcium-activated potassium channel protein), stably exp (human), Q9H2S1 (Q9H2S1 other isoform, or with tags, fused parts or gaps): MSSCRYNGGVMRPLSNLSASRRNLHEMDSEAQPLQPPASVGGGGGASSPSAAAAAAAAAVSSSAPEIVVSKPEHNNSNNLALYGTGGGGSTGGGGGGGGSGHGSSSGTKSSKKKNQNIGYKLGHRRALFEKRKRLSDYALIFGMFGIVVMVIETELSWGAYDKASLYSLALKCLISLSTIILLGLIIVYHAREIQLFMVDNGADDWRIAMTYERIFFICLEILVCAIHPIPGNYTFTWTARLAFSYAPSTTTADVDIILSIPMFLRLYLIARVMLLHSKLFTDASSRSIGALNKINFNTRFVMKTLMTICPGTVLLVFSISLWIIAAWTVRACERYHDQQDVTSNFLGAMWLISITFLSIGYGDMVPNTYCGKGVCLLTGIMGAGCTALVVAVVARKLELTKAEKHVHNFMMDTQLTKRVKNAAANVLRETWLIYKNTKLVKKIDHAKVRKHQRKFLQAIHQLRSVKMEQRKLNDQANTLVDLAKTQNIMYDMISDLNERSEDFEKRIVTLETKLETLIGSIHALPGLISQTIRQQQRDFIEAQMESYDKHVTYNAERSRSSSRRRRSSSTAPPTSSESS

AFCNLRMCQLSCRSLGLLGKCIGDKCECVKH (modifications not checked) [scyllatoxin, P16341 1-31] was tested, and the magnitude of the ATP/Tg induced decrease in fluorescence; concentration printed as 'tested at' (FIG. 9 concentration series) was 1.1 nM.
